Data taken from article PMC2764551.

Target: fluorescein-labeled UBE2D2 (WT) (human), P62837
Test: fluorescence polarisation
Conditions: remark: other sources report otherwise

fluorescein-labeled UBE2D2 (WT) (human), P62837, sequence (P62837 whole entry): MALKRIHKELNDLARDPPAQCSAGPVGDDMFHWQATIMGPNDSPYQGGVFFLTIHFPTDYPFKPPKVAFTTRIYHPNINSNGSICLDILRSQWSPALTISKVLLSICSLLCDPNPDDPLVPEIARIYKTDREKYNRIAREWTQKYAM

B1: IpaH1.4 C-terminal domain, residues 265-575, A0A0H2USG1 265-575 (domain or fragment)
chain: GPQIFFSMGNSATISAPEHSLADAVTAWFPENKQSDVSQIWHAFEHEEHANTFSAFLDRLSDTVSARNTSGFREQVAAWLEKLSASAELRQQSFAVAADATESCEDRVALTWNNLRKTLLVHQASEGLFDNDTGALLSLGREMFRLEILEDIARDKVRTLHFVDEIEVYLAFQTMLAEKLQLSTAVKEMRFYGVSGVTANDLRTAEAMVRSREENEFTDWFSLWGPWHAVLKRTEADRWAQAEEQKYEMLENEYSQRVADRLKASGLSGDADAEREAGAQVMRETEQQIYRQLTDEVLALRLSENGSNHIA
Kd: 317 µM
